Data published in US20040122077.

Assays:
[1] = test system: T1, mutant eNOS peptide (1174-1194) with serine 1179 substituted by alanine
T1 sequence: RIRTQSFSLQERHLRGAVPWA

[2] = test system: T2, wild type eNOS peptide 1174-RIRTQSFSLQERHLRGAVPWA-1194
T2 sequence: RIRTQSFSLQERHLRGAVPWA

endogenous eNOS of HUVEC = biological target: T3, endogenous eNOS of HUVEC (UniProt P29474)
T3 sequence: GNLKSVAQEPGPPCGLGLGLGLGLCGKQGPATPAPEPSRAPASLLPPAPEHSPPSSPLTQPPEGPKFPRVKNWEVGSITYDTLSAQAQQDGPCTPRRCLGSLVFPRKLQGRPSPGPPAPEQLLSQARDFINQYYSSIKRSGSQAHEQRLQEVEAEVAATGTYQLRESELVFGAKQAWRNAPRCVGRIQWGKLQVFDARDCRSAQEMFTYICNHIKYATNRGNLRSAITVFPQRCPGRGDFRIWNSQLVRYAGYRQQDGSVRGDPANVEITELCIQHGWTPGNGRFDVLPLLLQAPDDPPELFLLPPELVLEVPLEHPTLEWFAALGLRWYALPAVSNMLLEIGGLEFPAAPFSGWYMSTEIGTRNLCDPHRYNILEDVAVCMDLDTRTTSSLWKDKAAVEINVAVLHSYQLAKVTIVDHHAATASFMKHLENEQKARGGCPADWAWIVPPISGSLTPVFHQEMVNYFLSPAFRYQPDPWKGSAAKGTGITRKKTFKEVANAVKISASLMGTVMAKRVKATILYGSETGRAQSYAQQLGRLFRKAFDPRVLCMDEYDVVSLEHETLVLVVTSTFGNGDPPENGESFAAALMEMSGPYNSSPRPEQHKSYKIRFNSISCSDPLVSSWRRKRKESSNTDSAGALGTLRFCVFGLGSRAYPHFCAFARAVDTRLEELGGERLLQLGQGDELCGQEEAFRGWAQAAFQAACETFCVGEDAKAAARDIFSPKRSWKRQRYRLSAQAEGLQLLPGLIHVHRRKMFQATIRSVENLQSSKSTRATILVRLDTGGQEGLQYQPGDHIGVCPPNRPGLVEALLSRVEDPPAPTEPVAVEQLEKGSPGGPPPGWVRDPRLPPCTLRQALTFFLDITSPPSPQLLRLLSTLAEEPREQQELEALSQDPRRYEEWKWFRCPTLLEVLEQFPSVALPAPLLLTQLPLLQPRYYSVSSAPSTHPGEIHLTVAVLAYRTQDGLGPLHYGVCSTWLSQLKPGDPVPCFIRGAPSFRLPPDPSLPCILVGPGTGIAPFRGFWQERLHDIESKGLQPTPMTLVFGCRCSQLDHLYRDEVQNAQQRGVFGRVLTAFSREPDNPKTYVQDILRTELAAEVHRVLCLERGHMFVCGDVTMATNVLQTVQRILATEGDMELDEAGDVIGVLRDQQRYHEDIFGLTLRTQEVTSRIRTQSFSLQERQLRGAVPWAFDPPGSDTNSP

| Substance | 32P incorporation into eNOS peptide by immunoprecipitated Akt (in vitro kinase assay) [1] | phosphorylation of histone H2B by immunoprecipitated Akt (autoradiography) (histone H2B) | 32P incorporation into eNOS peptide by immunoprecipitated Akt (in vitro kinase assay) [2] | 32P-phosphate incorporation into endogenous eNOS in HUVEC (immunoprecipitation, autoradiography) (endogenous eNOS of HUVEC) |
| --- | --- | --- | --- | --- |
| Akt immunoprecipitated from HUVEC lysate with goat polyclonal anti-Akt1 antibody | a peptide with alanine substituted for serine at position 1179 did not incorporate appreciable phosphate under any condition tested | Akt polypeptide kinase activity was increased in lysates of HUVEC treated with 1.0 µM simvastatin or 100 ng/ml VEGF | Activation of Akt kinase activity was also observed when lysates prepared from simvastatin-treated cells were tested for their ability to phosphorylate a peptide containing the Akt phosphorylation site of eNOS (amino acids 1174 to 1194) | – |
| constitutively-active Akt (myrAkt), expressed in HUVEC from an adenovirus | – | – | – | adenovirus-mediated transduction of constitutively-active Akt (myrAkt) led to the incorporation of phosphate into eNOS in the absence of stimulation with simvastatin or VEGF |
